The target of data set [1] is T1, GgUox (Gallus gallus, UniProt A0A8V0ZED1).
T1 construct: gene LOC101747367; uricase-like CDS in pET28 (NheI/XhoI), N-terminal His-tag with thrombin site (uncleaved for crystals)
T1 sequence (A0A8V0ZED1 1-320): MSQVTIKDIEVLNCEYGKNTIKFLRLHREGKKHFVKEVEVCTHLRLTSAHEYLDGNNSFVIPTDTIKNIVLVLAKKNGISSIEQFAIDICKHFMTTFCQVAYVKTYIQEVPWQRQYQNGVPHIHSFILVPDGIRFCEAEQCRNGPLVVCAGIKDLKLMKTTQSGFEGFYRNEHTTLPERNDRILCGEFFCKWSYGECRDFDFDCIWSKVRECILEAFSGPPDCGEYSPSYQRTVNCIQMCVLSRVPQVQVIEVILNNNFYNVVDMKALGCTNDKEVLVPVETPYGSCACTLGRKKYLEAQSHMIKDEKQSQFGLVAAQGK
Put plainly: X-ray crystallography, […]-2.[…] Å, reduced and H2O2-oxidized crystals. The format is binding. To be noted: active site at dimer interface; uncleaved His-tag; space groups P2_12_12_1 and C222_1.

The target in data set [2] is T2, GgUox (Gallus gallus, UniProt A0A8V0ZED1, Y230H).
T2 construct: gene LOC101747367; uricase-like CDS in pET28 (NheI/XhoI), N-terminal His-tag with thrombin site (uncleaved for crystals)
T2 sequence (A0A8V0ZED1 1-320 Y230H): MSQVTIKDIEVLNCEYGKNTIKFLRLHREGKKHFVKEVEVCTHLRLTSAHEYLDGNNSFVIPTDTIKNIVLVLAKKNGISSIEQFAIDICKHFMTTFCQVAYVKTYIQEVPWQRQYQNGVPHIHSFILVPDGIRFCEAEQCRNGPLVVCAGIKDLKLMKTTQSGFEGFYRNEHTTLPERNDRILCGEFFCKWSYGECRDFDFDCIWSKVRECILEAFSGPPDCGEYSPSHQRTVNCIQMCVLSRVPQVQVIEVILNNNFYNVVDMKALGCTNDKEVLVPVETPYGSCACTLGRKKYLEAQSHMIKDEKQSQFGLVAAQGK
Briefly: uricase activity, specific activity. The format is biochemical. To be noted: activity relative to wild type.

Another data set deals with T3, DrUox (Danio rerio, UniProt Q6DG85).
T3 construct: gene uox; enzyme described in Marchetti et al. 2016; tetrameric, about 150 kDa
T3 sequence (Q6DG85 1-298): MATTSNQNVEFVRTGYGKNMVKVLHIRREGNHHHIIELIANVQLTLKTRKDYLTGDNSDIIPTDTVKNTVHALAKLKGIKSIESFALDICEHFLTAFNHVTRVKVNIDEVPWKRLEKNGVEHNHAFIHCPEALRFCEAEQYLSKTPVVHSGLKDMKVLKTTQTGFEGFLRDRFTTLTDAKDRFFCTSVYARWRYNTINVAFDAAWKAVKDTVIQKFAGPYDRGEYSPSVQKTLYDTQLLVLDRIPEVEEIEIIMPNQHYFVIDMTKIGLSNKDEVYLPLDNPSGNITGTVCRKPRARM
Put plainly: stopped flow, single turnover, diode array. The class given is biochemical. The following applies: 35 μM enzyme, 25 μM urate, 100 mM potassium phosphate pH 7.6, 25°C.

The target of data set [3] is Gallus gallus Uox (cysteine-rich urate oxidase) (Gallus gallus). Briefly: SEC; purified GgUox, single peak (supplementary fig. S4B).
Data set [4] shares this target. Briefly: atomic force microscopy; particle volume of the enzyme on mica, native or pre-incubated with βME, 100 nM protein in 4 mM HEPES pH 7.4, 10 mM NaCl, 2 mM MgCl2, imaged in air, tapping mode.
The target is the same in data set [5]. Briefly: crystal structure; GgUox with uncleaved N-terminal His tag in complex with the inhibitor 8-azaxanthine; space groups C222_(1) and P2_(1)2_(1)2_(1); reduced, and oxidised by a 100 mM H2O2 soak for 15 min.
Substrate in the data set “purified protein”: O=c1[nH]c(=O)c2[nH]c(=O)[nH]c2[nH]1
Briefly: purified protein. The class given is biochemical, Gallus gallus. To be noted: 100 mM potassium phosphate pH 7.6, 25°C, 4.1 µM GgUox, 1 µM HIUase, 2-140 μM urate.

Data set [6] concerns the molecule itself. Put plainly: atomic force microscopy; particle volume of the enzyme on mica, native or pre-incubated with βME, 100 nM protein in 4 mM HEPES pH 7.4, 10 mM NaCl, 2 mM MgCl2, imaged in air, tapping mode.

This is an account of results in publication PMC10517255, “Cysteine Enrichment Mediates Co-Option of Uricase in Reptilian Skin and Transition to Uricotelism” (Molecular Biology and Evolution, 2023).

The term stoichiometry N denotes a count of units in the complex or per binding partner. One may read the Km as the concentration of substrate that gives half-maximal velocity. Usually kcat stands for the maximal rate divided by the concentration of active sites.

As to `O=c1[nH]c(=O)c2nn[nH]c2[nH]1` [8-azaxanthine], on GgUox [1], the “X-ray crystallography, 1.7-2.1 Å, reduced and H2O2-oxidized crystals” value is reported as “We crystallized GgUox in complex with its AZA inhibitor in two space groups”.

As for `O=c1[nH]c(=O)c2[nH]c(=O)[nH]c2[nH]1` [uric acid], the “uricase activity, specific activity” value at GgUox [2] is reported as “we mutated the tyrosine in the active site of GgUox to either histidine (Y230H)”. Besides, the “stopped flow, single turnover, diode array” value on DrUox is listed as “the same experiment was carried out with DrUox for comparison”.

In the case of “Gallus gallus Uox (cysteine-rich urate oxidase) (enzyme)”, the stoichiometry N in data set [3], in data set [4] and in data set [5] was 4 in each case.

B1: GgUox (Gallus gallus) (protein)
chain: MSQVTIKDIEVLNCEYGKNTIKFLRLHREGKKHFVKEVEVCTHLRLTSAHEYLDGNNSFVIPTDTIKNIVLVLAKKNGISSIEQFAIDICKHFMTTFCQVAYVKTYIQEVPWQRQYQNGVPHIHSFILVPDGIRFCEAEQCRNGPLVVCAGIKDLKLMKTTQSGFEGFYRNEHTTLPERNDRILCGEFFCKWSYGECRDFDFDCIWSKVRECILEAFSGPPDCGEYSPSYQRTVNCIQMCVLSRVPQVQVIEVILNNNFYNVVDMKALGCTNDKEVLVPVETPYGSCACTLGRKKYLEAQSHMIKDEKQSQFGLVAAQGK
notes: uricase-like CDS in pET28 (NheI/XhoI), N-terminal His-tag with thrombin site (uncleaved for crystals)
Consider B1, for which, in the data set “purified protein”, the Km amounted to 12.5 µM and the catalytic constant (kcat) stood at 0.03 s⁻¹.

B2: Danio rerio Uox (enzyme, UniProt Q6DG85 1-298, looked up)
chain: MATTSNQNVEFVRTGYGKNMVKVLHIRREGNHHHIIELIANVQLTLKTRKDYLTGDNSDIIPTDTVKNTVHALAKLKGIKSIESFALDICEHFLTAFNHVTRVKVNIDEVPWKRLEKNGVEHNHAFIHCPEALRFCEAEQYLSKTPVVHSGLKDMKVLKTTQTGFEGFLRDRFTTLTDAKDRFFCTSVYARWRYNTINVAFDAAWKAVKDTVIQKFAGPYDRGEYSPSVQKTLYDTQLLVLDRIPEVEEIEIIMPNQHYFVIDMTKIGLSNKDEVYLPLDNPSGNITGTVCRKPRARM
notes: Danio rerio urate oxidase (DrUox), as in Marchetti et al. 2016; also called DrUox; uricase
On to B2, for which the “stoichiometry N” value in data set [6] turned out to be 4.
